Paper PMC4895024 (2016)

How the values were obtained:
[1] = biological target: T1, ProAgio (D1-CD2 variant 3) ( (human and rat D1-CD2 are …, UniProt P06729 25-206)); experiment: SPR
[2] = biological target: T1, ProAgio (D1-CD2 variant 3); experiment: ELISA; without polyLys

B1: recombinant integrin αvβ3 (commercial) (receptor)
chain 1: FNLDVDSPAEYSGPEGSYFGFAVDFFVPSASSRMFLLVGAPKANTTQPGIVEGGQVLKCDWSSTRRCQPIEFDATGNRDYAKDDPLEFKSHQWFGASVRSKQDKILACAPLYHWRTEMKQEREPVGTCFLQDGTKTVEYAPCRSQDIDADGQGFCQGGFSIDFTKADRVLLGGPGSFYWQGQLISDQVAEIVSKYDPNVYSIKYNNQLATRTAQAIFDDSYLGYSVAVGDFNGDGIDDFVSGVPRAARTLGMVYIYDGKNMSSLYNFTGEQMAAYFGFSVAATDINGDDYADVFIGAPLFMDRGSDGKLQEVGQVSVSLQRASGDFQTTKLNGFEVFARFGSAIAPLGDLDQDGFNDIAIAAPYGGEDKKGIVYIFNGRSTGLNAVPSQILEGQWAARSMPPSFGYSMKGATDIDKNGYPDLIVGAFGVDRAILYRARPVITVNAGLEVYPSILNQDNKTCSLPGTALKVSCFNVRFCLKADGKGVLPRKLNFQVELLLDKLKQKGAIRRALFLYSRSPSHSKNMTISRGGLMQCEELIAYLRDESEFRDKLTPITIFMEYRLDYRTAADTTGLQPILNQFTPANISRQAHILLDCGEDNVCKPKLEVSVDSDQKKIYIGDDNPLTLIVKAQNQGEGAYEAELIVSIPLQADFIGVVRNNEALARLSCAFKTENQTRQVVCDLGNPMKAGTQLLAGLRFSVHQQSEMDTSVKFDLQIQSSNLFDKVSPVVSHKVDLAVLAAVEIRGVSSPDHVFLPIPNWEHKENPETEEDVGPVVQHIYELRNNGPSSFSKAMLHLQWPYKYNNNTLLYILHYDIDGPMNCTSDMEINPLRIKISSLQTTEKNDTVAGQGERDHLITKRDLALSEGDIHTLGCGVAQCLKIVCQVGRLDRGKSAILYVKSLLWTETFMNKENQNHSYSLKSSASFNVIEFPYKNLPIEDITNSTLVTTNVTWGIQPAPMPV
chain 2: GPNICTTRGVSSCQQCLAVSPMCAWCSDEALPLGSPRCDLKENLLKDNCAPESIEFPVSEARVLEDRPLSDKGSGDSSQVTQVSPQRIALRLRPDDSKNFSIQVRQVEDYPVDIYYLMDLSYSMKDDLWSIQNLGTKLATQMRKLTSNLRIGFGAFVDKPVSPYMYISPPEALENPCYDMKTTCLPMFGYKHVLTLTDQVTRFNEEVKKQSVSRNRDAPEGGFDAIMQATVCDEKIGWRNDASHLLVFTTDAKTHIALDGRLAGIVQPNDGQCHVGSDNHYSASTTMDYPSLGLMTEKLSQKNINLIFAVTENVVNLYQNYSELIPGTTVGVLSMDSSNVLQLIVDAYGKIRSKVELEVRDLPEELSLSFNATCLNNEVIPGLKSCMGLKIGDTVSFSIEAKVRGCPQEKEKSFTIKPVGFKDSLIVQVTFDCDCACQAQAEPNSHRCNNGNGTFECGVCRCGPGWLGSQCECSEEDYRPSQQDECSPREGQPVCSQRGECLCGQCVCHSSDFGKITGKYCECDDFSCVRYKGEMCSGHGQCSCGDCLCDSDWTGYYCNCTTRTDTCMSSNGLLCSGRGKCECGSCVCIQPGSYGDTCEKCPTCPDACTFKKECVECKKFDRGALHDENTCNRYCRDEIESVKELKDTGKDAVNCTYKNEDDCVVRFQYYEDSSGKSILYVVEEPECPKGPD
Kd [1]: 2 nM | Kd [2]: 35 nM
